Test results published in the supplement of paper PMC11246515.
± gives the standard deviation of the averaged measurements.

Assay: total protein half-life in vivo (active degradation + dilution); higher = more stable protein
[1] = E. coli NCM3722 delta-clpP delta-lon delta-hslV, growth: N-lim chemostat, doubling time 6 h
[2] = E. coli NCM3722 delta-clpP, growth: N-lim chemostat, doubling time 6 h
[3] = E. coli NCM3722 delta-hslV, growth: N-lim chemostat, doubling time 6 h
[4] = E. coli NCM3722 delta-lon, growth: N-lim chemostat, doubling time 6 h
[5] = E. coli NCM3722 delta-smpB, growth: N-lim chemostat, doubling time 6 h
[6] = wild type E. coli NCM3722, growth: C-lim chemostat, doubling time 3 h
[7] = wild type E. coli NCM3722, growth: C-lim chemostat, doubling time 6 h
[8] = wild type E. coli NCM3722, growth: C-lim chemostat, doubling time 12 h
[9] = wild type E. coli NCM3722, growth: N-lim chemostat, doubling time 6 h
[10] = wild type E. coli NCM3722, growth: N-lim chemostat, doubling time 12 h
[11] = wild type E. coli NCM3722, growth: P-lim chemostat, doubling time 6 h
[12] = wild type E. coli NCM3722, growth: P-lim chemostat, doubling time 12 h

Sequence | total protein half-life in vivo [1] [h] | total protein half-life in vivo [2] [h] | total protein half-life in vivo [3] [h] | total protein half-life in vivo [4] [h] | total protein half-life in vivo [5] [h] | total protein half-life in vivo [6] [h] | total protein half-life in vivo [7] [h] | total protein half-life in vivo [8] [h] | total protein half-life in vivo [9] [h] | total protein half-life in vivo [10] [h] | total protein half-life in vivo [11] [h] | total protein half-life in vivo [12] [h]
MNNKGSGLTPAQALDKLDALYEQSVVALRNAIGNYITSGELPDENARKQGLFVYPSLTVTWDGSTTNPPKTRAFGRFTHAGSYTTTITRPTLFRSYLNEQLTLLYQDYGAHISVQPSQHEIPYPYVIDGSELTLDRSMSAGLTRYFPTTELAQIGDETADGIYHPTEFSPLSHFDARRVDFSLARLRHYTGTPVEHFQPFVLFTNYTRYVDEFVRWGCSQILDPDSPYIALSCAGGNWITAETEAPEEAISDLAWKKHQMPAWHLITADGQGITLVNIGVGPSNAKTICDHLAVLRPDVWLMIGHCGGLRESQAIGDYVLAHAYLRDDHVLDAVLPPDIPIPSIAEVQRALYDATKLVSGRPGEEVKQRLRTGTVVTTDDRNWELRYSASALRFNLSRAVAIDMESATIAAQGYRFRVPYGTLLCVSDKPLHGEIKLPGQANRFYEGAISEHLQIGIRAIDLLRAEGDRLHSRKLRTFNEPPFR [P0AE12] | 6.26 ± 1.5 | 5.49 ± 1 | 5.31 ± 0.55 | 4.76 ± 0.66 | 4.37 ± 0.083 | 3.24 ± 0.42 | 6.34 ± 0.73 | 10.6 ± 0.36 | 4.51 ± 0.26 | 8.24 ± 1.3 | 6.19 ± 0.32 | –
MNNLPLLNDLRVFMLVARRAGFAAVAEELGVSPAFVSKRIALLEQTLNVVLLHRTTRRVTITEEGERIYEWAQRILQDVGQMMDELSDVRQVPQGMLRIISSFGFGRQVVAPALLALAKAYPQLELRFDVEDRLVDLVNEGVDLDIRIGDDIAPNLIARKLATNYRILCASPEFIAQHGAPKHLTDLSALPCLVIKERDHPFGVWQLRNKEGPHAIKVTGPLSSNHGEIVHQWCLDGQGIALRSWWDVSENIASGHLVQVLPEYYQPANVWAVYVSRLATSAKVRITVEFLRQYFAEHYPNFSLEHA | 5.43 ± 0.67 | 1.82 ± 0.43 | – | – | 1.16 | 0.948 ± 0.17 | 2.24 ± 0.21 | 3.54 ± 0.1 | – | – | 0.535 | –
MNNLPVVRSPWRIVILLLGFTFLYAPMLMLVIYSFNSSKLVTVWAGWSTRWYGELLRDDAMMSAVGLSLTIAACAATAAAILGTIAAVVLVRFGRFRGSNGFAFMITAPLVMPDVITGLSLLLLFVALAHAIGWPADRGMLTIWLAHVTFCTAYVAVVISSRLRELDRSIEEAAMDLGATPLKVFFVITLPMIMPAIISGWLLAFTLSLDDLVIASFVSGPGATTLPMLVFSSVRMGVNPEINALATLILGAVGIVGFIAWYLMARAEKQRIRDIQRARRG [P0AFL1] | 5.96 | – | – | – | – | – | – | – | – | > 16 | – | 10.3
MNNMFEPPKNYNEMLPKLHKATFLNTLIYCILLVIYEYIPLITLPTKYVPPIKDHESFINWALSFGILPCAFAIFAYLISGALDLHNNAAKLLRVRYLWDKHLIIKPLSRRAGVNRKLNKDEAHNVMSNLYYPEVRKIEDKHYIELFWNKVYYFWIFFEFSIIALISFLIIFFCKQMDIFHVEGSLLSLFFFVILSFSVSGIIFALTVKPRTESQVGKIPDDKIKEFFTKNNIN | 5.36 | – | 4.62 | – | 5.48 ± 0.069 | 2.94 | 4.97 ± 0.76 | 10.6 ± 0.83 | 5.04 | 7.86 | 5.56 ± 0.71 | 11.3 ± 1.6
MNNNLQRDAIAAAIDVLNEERVIAYPTEAVFGVGCDPDSETAVMRLLELKQRPVDKGLILIAANYEQLKPYIDDTMLTDVQRETIFSRWPGPVTFVFPAPATTPRWLTGRFDSLAVRVTDHPLVVALCQAYGKPLVSTSANLSGLPPCRTVDEVRAQFGAAFPVVPGETGGRLNPSEIRDALTGELFRQG | 4.72 ± 0.33 | 4.4 ± 0.6 | 4.12 ± 0.43 | 5.29 ± 0.27 | 3.89 ± 0.05 | – | 5.61 ± 0.47 | 9.17 ± 0.24 | 4.08 ± 0.38 | 5.63 ± 1.6 | 5.25 ± 0.24 | 11 ± 1.6
MNNNTTAPTYTLRGLQLIGWRDMQHALDYLFADGQLKQGTLVAINAEKMLTIEDNAEVRELINAAEFKYADGISVVRSVRKKYPQAQVSRVAGADLWEELMARAGKEGTPVFLVGGKPEVLAQTEAKLRNQWNVNIVGSQDGYFKPEQRQALFERIHASGAQIVTVAMGSPKQEIIMRDCRLVHPDALYMGVGGTYDVFTGHVKRAPKIWQTLGLEWLYRLLSQPSRIKRQLRLLRYLRWHYTGNL | 6.19 ± 0.52 | 6.04 ± 0.25 | 6.18 ± 0.083 | 7.03 ± 0.76 | 6.88 ± 0.092 | 3.045 ± 0.02 | 5.84 ± 0.15 | 12.2 ± 1.7 | 6.58 ± 0.62 | 12.6 ± 0.13 | 5.76 ± 0.52 | 13.4 ± 1.2
MNNSINHKFHHISRAEYQELLAVSRGDAVADYIIDNVSILDLINGGEISGPIVIKGRYIAGVGAEYTDAPALQRIDARGATAVPGFIDAHLHIESSMMTPVTFETATLPRGLTTVICDPHEIVNVMGEAGFAWFARCAEQARQNQYLQVSSCVPALEGCDVNGASFTLEQMLAWRDHPQVTGLAEMMDYPGVISGQNALLDKLDAFRHLTLDGHCPGLGGKELNAYITAGIENCHESYQLEEGRRKLQLGMSLMIREGSAARNLNALAPLINEFNSPQCMLCTDDRNPWEIAHEGHIDALIRRLIEQHNVPLHVAYRVASWSTARHFGLNHLGLLAPGKQADIVLLSDARKVTVQQVLVKGEPIDAQTLQAEESARLAQSAPPYGNTIARQPVSASDFALQFTPGKRYRVIDVIHNELITHSHSSVYSENGFDRDDVSFIAVLERYGQRLAPACGLLGGFGLNEGALAATVSHDSHNIVVIGRSAEEMALAVNQVIQDGGGLCVVRNGQVQSHLPLPIAGLMSTDTAQSLAEQIDALKAAARECGPLPDEPFIQMAFLSLPVIPALKLTSQGLFDGEKFAFTTLEVTE | 4.53 | 3.24 ± 0.11 | – | – | – | 2.16 ± 0.17 | 3.19 ± 0.16 | 4.26 ± 0.098 | – | – | 3.61 ± 1.4 | 4.14 ± 0.77
